Assay results reported in article doi:10.1101/756874, “Spontaneous oligomerization of BAK/BAX is suppressed by hetero-dimerization with MCL-1” (bioRxiv, 2019).
No end group written: not given here. *: point of attachment. TAMRA = 5-carboxytetramethylrhodamine, CN(C)c1ccc2c(-c3ccc(C(=O)*)cc3C(=O)[O-])c3ccc(=[N+](C)C)cc-3oc2c1

B1: PUMABH3, un-labeled, recombinant (UniProt:Q9BXH1, residues 125–161, M144A) (peptide, UniProt Q9BXH1 125-161, looked up)
peptide: GVRGEEEQWAREIGAQLRRAADDLNAQYERRRQEEQQ
notes: human PUMA BH3, residues 125-161; theoretical mass 4442.75 Da is printed; not shown: His6, N-terminal, cleaved; GB1, N-terminal, cleaved
B2: BAK (UniProt:Q16611, residues 16–185, C166S) (domain or fragment, human, UniProt Q16611 16-185, looked up)
chain: EPALPSASEEQVAQDTEEVFRSYVFYRHQQEQEAEGVAAPADPEMVTLPLQPSSTMGQVGRQLAIIGDDINRRYDSEFQTMLQHLQPTAENAYEYFTKIATSLFESGINWGRVVALLGFGYRLALHVYQHGLTGFLGQVTRFVVDFMLHHSIARWIAQRGGWVAALNLGN
notes: human BAK, residues 16-185, without the short disordered N-terminal segment and the C-terminal transmembrane helix; cysteine mutated to serine; Monomeric in buffer, oligomeric in detergent; the same construct in all experiments; Theoretical mass 19217.64 Da; also called 'wild-type' BAK (no cysteines); source: E. coli BL21(DE3), purified (chitin resin, intein self-cleavage with DTT, SEC); not …
B3: MCL-1 (UniProt:Q07820, residues 168–327, C286S) (domain or fragment, human)
chain: GSEEEEDELYRQSLEIISRYLREQATGAKDTKPMGRSGATSRKALETLRRVGDGVQRNHETAFQGMLRKLDIKNEDDVKSLSRVMIHVFSDGVTNWGRIVTLISFGAFVAKHLKTINQESSIEPLAESITDVLVRTKRDWLVKQRGWDGFVEFFHVEDLEGG
notes: extra GS left at the N-terminus after removal of the tag with thrombin; human MCL-1, residues 168-327, without the disordered N-terminus and the C-terminal transmembrane region; Theoretical mass 18409.74 Da; source: E. coli C41(DE3), purified (Ni-NTA, thrombin cleavage, cation exchange, SEC); not shown: His6, N-terminal, cleaved
B4: BIDBH3, TAMRA-labelled 35-residue peptide (UniProt:P55957, residues 76–110) (peptide, UniProt P55957 76-110, looked up)
peptide: {TAMRA}-SESQEDIIRNIARHLAQVGDSMDRSIPPGLVNGLA
notes: source: synthetic peptide, bought: Biomatik
B5: BAKBH3, TAMRA-labelled 35-residue peptide (UniProt:Q16611, residues 64–98, P64A) (peptide, UniProt Q16611 64-98, looked up)
peptide: {TAMRA}-ALQPSSTMGQVGRQLAIIGDDINRRYDSEFQTMLQ
notes: as for B4

Tests used:
Details in all cases: both partners purified
[1] = biological target: B3; test: out-competition dissociation kinetics (fluorescence); pre-formed equimolar complex of MCL-1 and TAMRA-labelled BH3 peptide diluted into 50–400 molar excess of un-labelled PUMABH3; TAMRA fluorescence intensity or polarisation; manual mixing or stopped-flow; buffer without detergent
[2] = biological target: B3; test: fluorescence polarisation; kinetics; BAK and MCL-1 pre-incubated in PS20 (20xCMC), then dye-labelled BH3 peptide added; change in TAMRA fluorescence polarisation fitted to a single exponential
[3] = biological target: T1, BAX (UniProt:Q07812, residues 1–171, C62S, C126S) (human, UniProt Q07812 1-171, C62S | C126S); test: native MS; 5 μM total protein (equimolar), 100 mM ammonium acetate pH 7.0, PS20 5xCMC, at least 3 h at room temperature
T1 construct: human BAX, residues 1-171, without the C-terminal transmembrane helix; cysteines mutated to serines; Theoretical mass 18933.65 Da; source: E. coli C41(DE3), purified (chitin resin, intein self-cleavage with DTT, SEC); not shown: intein, C-terminal, cleaved
T1 sequence (Q07812 1-171 C62S/C126S, one chain of several): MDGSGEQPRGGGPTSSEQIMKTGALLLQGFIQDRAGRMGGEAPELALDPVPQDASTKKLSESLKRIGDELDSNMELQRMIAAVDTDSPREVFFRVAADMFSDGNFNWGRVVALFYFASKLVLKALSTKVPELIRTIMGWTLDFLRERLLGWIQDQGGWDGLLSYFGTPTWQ

[4] = biological target: B2; test: SEC; proteins pre-incubated in detergent (PS20, C12E8 and others, at the multiples of CMC given in the legends); Superdex 200 Increase 10/300 GL, 50 mM sodium phosphate pH 7.0
[5] = biological target: B3; test: as above
[6] = biological target: B3; test: stopped-flow association kinetics + other: out-competition dissociation kinetics; affinities of BH3 peptides for MCL-1 in buffer without detergent (Table 1); how Kd was obtained is not told in the text shown

B1: binds [1].

For B2, the “half-life (displacement of BAK:MCL-1 hetero-dimers by PUMA)” value [2] was ~17 min.

B3: binds [3]; binds [4].

B4: binds [5].

B5 was tested, and the Kd [6] was 0.08 nM and the koff [1] was 0.00056 s⁻¹.
